According to patent publication US8372950B2, “IgG binding peptide” (Kagoshima University, priority 2006, dated 2013):

Experiment: molecular sieve chromatography of acid-denatured MRA
Format: physicochemical
Settings: acid treated pH 2.7, 30° C., 10 minutes, purified on IMGpep-4K6R column, FIG. 15C
Method: First, 20 μl of 1 M glycine-HCl (pH 2.7) was added to 200 μl of humanized anti-human IL-6 receptor IgG antibody (MRA) (2000 μg/ml, PBS solution). The solution was incubated for 10 minutes at 30° C. and then 30 μl of 1 M Tris-HCl (pH 8.7) was added thereto for neutralization to prepare an acid-treated antibody sample. Also, a biotinylated IMGPep-4K6R peptide-immobilized column was prepared in a manner similar to that in Example 10. An acid-treated antibody sample was injected at a flow rate of 0.4 ml/min to the column and then gradient elution was carried out using from 20 mM phosphate buffered saline (PBS, pH 7.0) containing 0.1M NaCl to 0.1M glycine-HCl (pH 2.5) containing 0.1M NaCl. The thus eluted IgG was a purified acid-denatured humanized anti-human IL-6 receptor IgG antibody (MRA).
Subsequently, the purified acid-denatured MRA was subjected to molecular sieve chromatography using a HiLoad Sperdex 200 16/60 column (GE Healthcare). Similarly, untreated MRA, an acid-treated antibody sample, and a flow-through fraction (undenatured MRA) obtained via injection of an acid-treated antibody sample to a biotinylated IMGPep-4K6R peptide-immobilized column, were also separately subjected to molecular sieve chromatography using a HiLoad Sperdex 200 16/60 column (GE Healthcare). […]

For “MRA: Humanized anti-human IL-6 receptor monoclonal IgG antibody, Chugai Pharmaceutical”, the “monomers in purified acid-denatured MRA” value was “approximately 65%”.
